# According to patent US20140024038A1, “METHOD AND REAGENTS FOR TREATING HEPATIC FIBROSIS AND INFLAMMATION” (Agency for Science, Technology and Research, priority 2006, published 2014):
# B1: IFN-γ: recombinant rat interferon-γ purchased from BioVision, proinflammatory cytokine (protein, UniProt P01581 23-156, looked up)
# Interferon gamma: QGTLIESLESLKNYFNSSSMDAMEGKSLLLDIWRNWQKDGNTKILESQIISFYLRLFEVLKDNQAISNNISVIESHLITNFFSNSKAKKDAFMSIAKFEVNNPQIQHKAVNELIRVIHQLSPESSLRKRKRSRC
# Legend:
# Type in all cases: cell-based, rat
# [1] = system: HSC-T6 and activated HSCs; experiment: Immunofluorescence staining of CD74, RT1-B and cathepsin S proteins after IFN-γ treatment
# Description: The primary cells were grown in DMEM supplemented with 10% FBS on glass cover slips in 24-well culture plates prior to staining with antibodies against GFAP, SMAA, Desmin, RECA-1, ED-2, cathepsin S, RT1-B and CD74. At 60-70% confluence, the cells were washed once with sterile PBS and fixed with 4% paraformaldehyde (PFA) for 30 min at 4° C., followed by three washes with PBS. The cells were blocked and permeabilized in blocking solution (10% horse serum, 0.1% Triton X-100 in PBS) for 1 h at 37° C. The primary antibody was incubated in 10% blocking solution in PBS for 1 h at 37° C. followed by the secondary antibody under the same conditions. The primary antibody was omitted as a negative control. All images were taken with the LEICA DM IRB epifluorescence microscope using a 63× objective.
# For induction experiments, IFN-γ was added to the cell culture at low confluence and the cells were cultivated further for different times depending on the targets to be stained (Cat S: 0, 4, 8, 24, 30 h; CD74: 0, 8, 24, 30 h; and RT1-B: 0, 24, 48 h). The presented images are representative for 3 experiments. Images were taken with a 40× objective. The fluorescence intensities from 3 to 7 different fields of vision of one representative experiment were quantified using the Image processing toolbox of the MATLAB platform (MathWorks, MA, USA). The following antibodies were used in the immunofluorescent staining. Anti-Cat S antibody (sc-6505) and anti-CD74 antibody (sc-5438) were from Santa Cruz Biotechnology (CA, USA); anti-RT1-B antibody (554926) was from BD Pharmingen (CA, USA); anti-GFAP antibody (Z 0334) was from Dako (CA, USA); and anti-SMAA-Cy3 (C 6198) and antidesmin antibody (D 8281) were from Sigma Chemicals (MO, USA). The anti-RECA-1 antibody (MCA970) and anti-ED-2 (CD163, MCA342R) were from Serotec (Oxford, UK). […]
# For these experiments, we used the HSC-T6 and the activated HSCs. […] FIG. 5A and FIG. 5C show the immunofluorescence staining with anti-CD74 antibody after 30 h of IFN-γ induction for HSC-T6 and activated HSCs respectively (arrows depict the increase in fluorescence). […]
# [2] = system: HSC-T6, activated HSCs and CFSC-3H; experiment: Cathepsin S activity measurement in HSCs after IFN-γ induction (BioVision kit, fluorogenic substrate); conditions: IFN-γ 10 ng/ml, 48 h, P<0.05 vs untreated, FIG. 9
# Description: The cells were grown in cell culture medium containing 10% FBS in 75 cm^2 flasks. When the cells reached 50-60% confluence, IFN-γ was added at 10 ng/ml or omitted as untreated sample. The cells were harvested 48 h later and resuspended in CS cell lysis buffer. Cathepsin S activity was measured using a kit from BioVision (K1101-01) according to the provided manual. The final substrate concentration was 200 μM. Emitted fluorescence was measured using the Tecan Satire II (Tecan, Zurich, Switzerland) fluorescence plate reader at λex: 400 nm and λem: 505 nm. An AFC standard curve was used to calculate the released fluorophore in μM per μg protein per hour at 37° C.
# To further investigate the induction of cathepsin S by IFN-γ, activity measurement was performed to directly detect cathepsin S in activated HSCs and both cell lines. FIG. 9 depicts the cathepsin S activity in activated HSCs and two different cell lines. The cells were grown in cell culture medium containing 10% FBS. When they reached 50-60% confluence, IFN-γ was added or omitted as control. The cells were harvested 48 h later and resuspended in CS cell lysis buffer. Cathepsin S activity was measured using a final substrate concentration of 200 μM. The specific activity is given in released fluorophore (AFC) in μM per μg protein per hour at 37° C. Data are presented as mean±SD*P<0.05.
# [3] = system: HSC-T6, activated HSCs and CFSC-3H; experiment: Real-time RT-PCR of Cat S, Cat L, CD74, CIITA and RT1-Dα after IFN-γ treatment
# Description: HSC-T6, CFSC-3H and activated HSCs were plated into 75 cm^2 culture flasks and grown overnight at conditions described above. The cells at a confluence of 60-70% were incubated with 10 ng/ml final concentration (equivalent to 100 U/ml) of recombinant rat IFN-γ for 2, 4, 8 and 24 h. The recombinant rat interferon-γ (IFN-γ) was purchased from BioVision (CA, USA). Total RNA was isolated using the NucleoSpin RNAII isolation kit (Macherey & Nagel, Germany) according to the manufacturer's protocol. The RNA concentration was measured with the ND-100 spectrophotometer (NanoDrop Technologies, DE, USA).
# Real-time PCR was performed using the ABI 7500 Real Time PCR System (Applied Biosystems, CA, USA). All reagents were purchased from this company unless otherwise stated. Total RNA was reverse transcribed to cDNA using reagents from the cDNA archive kit (4322171). 10 μg of total RNA was used in a total reverse transcription reaction volume of 100 μl. The RT step was performed for 10 min at 25° C. and 2 h at 37° C. In real-time PCR, 20× TaqMan gene expression assay mix of Cat S (Rn01534427_m1), Cat L (Rn00565793_m1), CD74 (Rn01491430_g1), CIITA (Rn01424723_g1) and RT1-Dα (Rn02346209g1), as well as 20×18s rRNA (4319413E) were used. For each real-time target, the reaction comprises of 3 μl cDNA, 0.5 μl 20×18S rRNA, 0.5 μl 20× TaqMan gene expression assay, 1 μl nuclease-free water and 5 μl TaqMan Universal PCR master mix (4352042). Conditions for PCR were 2 min 50° C., 10 min 95° C. and 40 cycles of 15 s 95° C. and 1 min 60° C. The comparative threshold method was used to quantitate relative changes of target mRNA (User Bulletin #2, Applied Biosystems). Relative quantitation of target mRNA was expressed as fold change in gene expression to control (untreated). The data presented are representative for three independent experiments with the same trend. The graphs were made using OrignPro 7 (OriginLab, MA, USA).
# FIG. 3A-3C depicts a quantitative analysis of the change in cathepsin S, CIITA, CD74 and RT1-Dα transcript level upon treatment with IFN-γ using real-time RT-PCR. After treatment with IFN-γ for 2, 4, 8 and 24 h, total RNA was extracted from the three different HSCs (activated HSC, HSC-T6 and CFSC-3H). The RNA was reverse transcribed and real-time RT-PCR was performed using TaqMan assays. The results were expressed as fold change in gene expression compared to the untreated samples using the relative quantification method for HSC-T6 (FIG. 3A), activated HSCs (FIG. 3B) and CFSC-3H (FIG. 3C).
# [4] = IFN-γ 10 ng/ml, 2-24 h, HSC-T6, activated HSCs, CFSC-3H, vs untreated
molecule,measurement,setting,value
B1,cathepsin S expression on the protein level,"[1]; IFN-γ 8 h, quantified fluorescence intensities, FIG. 8",significant increase
same,CD74 protein expression,[1]; IFN-γ 30 h,significantly induced
same,RT1-B protein expression,[1]; IFN-γ 48 h,induced
same,cathepsin S specific activity,[2],significant increase
same,CIITA type III transcript,"[3]; HSCs, data not shown",inducible
same,increase in CIITA transcript level in activated HSCs relative to HSC-T6 and CFSC-3H,[3]; IFN-γ 10 ng/ml,> 20 times
same,CIITA transcript level,[3]; [4],started to increase at an early time point
same,cathepsin S transcript level,[3]; [4],upregulated
same,mRNA expression of RT1-Dα and CD74,"[3]; IFN-γ 10 ng/ml, at a later time, indirectly through CIITA",induced
same,cathepsin L mRNA level,"[3]; IFN-γ 2, 4, 8 and 24 h, activated HSCs, HSC-T6, CFSC-3H, FIG. 4",no influence
same,cathepsin L mRNA expression in CFSC-3H,"[3]; after 8 h IFN-γ, CFSC-3H",decreased
